Source: patent US20220403424A1 (UNIVERSITY OF PUERTO RICO, published 2022)

B1: FabA-Linker-FabZ fused heterodimer (enzyme)
chain: MVDKRESYTKEDLLASGRGELFGAKGPQLPAPNMLMMDRVVKMTETGGNFDKGYVEAELDINPDLWFFGCHFIGDPVMPGCLGLDAMWQLVGFYLGWLGGEGKGRALGVGEVKFTGQVLPTAKKVTYRIHFKRIVNRRLIMGLADGEVLVDGRLIYTASDLKVGLFQDTSAFSTQNVAIQTAAPVASASNGLDAAQVQGTMTTNTHTLQIEEILELLPHRFPFLLVDRVLDFEEGRFLRAVKNVSVNEPFFQGHFPGKPIFPGVLILEAMAQATGILAFKSVGKLEPGELYYFAGIDEARFKRPVVPGDQMIMEVTFEKTRRGLTRFKGVALVDGKVVCEATMMCARSREA
notes: Single-chain fusion, His-tagged, purified from E. coli; By SEC and SAXS the chain self-associates into a higher oligomer of about 400 kDa; The number of copies is not settled: 'possibly decamers', and nonamers in computational models; also called FabA-FabZ; FabA-peptide linker-FabZ; not shown: His tag from vector pET-200/TOPO
B2: FabZ-Linker-FabZ fused homodimer (enzyme)
chain: MTTNTHTLQIEEILELLPHRFPFLLVDRVLDFEEGRFLRAVKNVSVNEPFFQGHFPGKPIFPGVLILEAMAQATGILAFKSVGKLEPGELYYFAGIDEARFKRPVVPGDQMIMEVTFEKTRRGLTRFKGVALVDGKVVCEATMMCARSREASTQNVAIQTAAPVASASNGLDAAQVQGTMTTNTHTLQIEEILELLPHRFPFLLVDRVLDFEEGRFLRAVKNVSVNEPFFQGHFPGKPIFPGVLILEAMAQATGILAFKSVGKLEPGELYYFAGIDEARFKRPVVPGDQMIMEVTFEKTRRGLTRFKGVALVDGKVVCEATMMCARSREA
notes: Single-chain fusion; By SEC it elutes as a trimer of fused dimers, so three copies of this chain, at about 116 kDa; also called FabZ-FabZ; FabZFabZ; not shown: His tag from vector pET-200/TOPO

Target: the molecule itself
Assay: size exclusion chromatography, self-association

Row | Protein | binding result
1 | B1 | binds
2 | B2 | binds
